Test results: the Human Domainome abundance scans (Beltran et al. 2025)
± gives the uncertainty stated by the source.

B1: POU domain, class 6, transcription factor 2, residues 609 to 663; numbered along this chain, P78424 (parent)
chain: KRRTSFTPQALEILNAHFEKNTHPSGQEMTEIAEKLNYDREVVRVWFCNKRQALK

Variants of: B1
Test: abundance fitness (aPCA) (normalised: wild type 0, dead -1); higher = more abundant; growth selection in yeast, the domain comes from the species named
Settings: Homo sapiens

Which abundance fitness does the source give for KRRTSFTPQCLEILNAHFEKNTHPSGQEMTEIAEKLNYDREVVRVWFCNKRQALK [A10C] here?
The abundance fitness was -0.154 ± 0.23.

Which abundance fitness does the source give for KRRTSFTPQDLEILNAHFEKNTHPSGQEMTEIAEKLNYDREVVRVWFCNKRQALK [A10D] here?
Its abundance fitness is -0.015 ± 0.15.

With KRRTSFHPQALEILNAHFEKNTHPSGQEMTEIAEKLNYDREVVRVWFCNKRQALK [T7H] as the variant, how does the abundance fitness read?
Its abundance fitness is -0.226 ± 0.18.

With KRRTSFRPQALEILNAHFEKNTHPSGQEMTEIAEKLNYDREVVRVWFCNKRQALK [T7R] as the variant, how does the abundance fitness read?
The abundance fitness was -0.321 ± 0.087.

For KRRTSFLPQALEILNAHFEKNTHPSGQEMTEIAEKLNYDREVVRVWFCNKRQALK [T7L], which abundance fitness is on record?
Its abundance fitness is -0.288 ± 0.08.

Which abundance fitness does the source give for KRRTSFIPQALEILNAHFEKNTHPSGQEMTEIAEKLNYDREVVRVWFCNKRQALK [T7I] here?
The abundance fitness was -0.615 ± 0.2.

With KRRTSFVPQALEILNAHFEKNTHPSGQEMTEIAEKLNYDREVVRVWFCNKRQALK [T7V] as the variant, how does the abundance fitness read?
The abundance fitness was -0.403 ± 0.098.

For KRRTSFKPQALEILNAHFEKNTHPSGQEMTEIAEKLNYDREVVRVWFCNKRQALK [T7K], which abundance fitness is on record?
The abundance fitness was -0.565 ± 0.17.

Which abundance fitness does the source give for KRRTSFSPQALEILNAHFEKNTHPSGQEMTEIAEKLNYDREVVRVWFCNKRQALK [T7S] here?
Its abundance fitness is -0.042 ± 0.09.

Which abundance fitness does the source give for KRRTSFEPQALEILNAHFEKNTHPSGQEMTEIAEKLNYDREVVRVWFCNKRQALK [T7E] here?
The abundance fitness was 0.05 ± 0.13.

For KRRTSFWPQALEILNAHFEKNTHPSGQEMTEIAEKLNYDREVVRVWFCNKRQALK [T7W], which abundance fitness is on record?
Its abundance fitness is -0.409 ± 0.089.

Which abundance fitness does the source give for KRRTSFMPQALEILNAHFEKNTHPSGQEMTEIAEKLNYDREVVRVWFCNKRQALK [T7M] here?
The abundance fitness was -0.395 ± 0.14.

For KRRTSFDPQALEILNAHFEKNTHPSGQEMTEIAEKLNYDREVVRVWFCNKRQALK [T7D], which abundance fitness is on record?
Its abundance fitness is -0.402 ± 0.22.

For KRRTSFCPQALEILNAHFEKNTHPSGQEMTEIAEKLNYDREVVRVWFCNKRQALK [T7C], which abundance fitness is on record?
The abundance fitness was -0.079 ± 0.1.

For KRRTSFGPQALEILNAHFEKNTHPSGQEMTEIAEKLNYDREVVRVWFCNKRQALK [T7G], which abundance fitness is on record?
The abundance fitness was -0.007 ± 0.093.

With KRRTSFFPQALEILNAHFEKNTHPSGQEMTEIAEKLNYDREVVRVWFCNKRQALK [T7F] as the variant, how does the abundance fitness read?
Its abundance fitness is -0.867 ± 0.26.

Which abundance fitness does the source give for KRRTSFYPQALEILNAHFEKNTHPSGQEMTEIAEKLNYDREVVRVWFCNKRQALK [T7Y] here?
The abundance fitness was -0.637 ± 0.17.

Which abundance fitness does the source give for KRRTSFPPQALEILNAHFEKNTHPSGQEMTEIAEKLNYDREVVRVWFCNKRQALK [T7P] here?
Its abundance fitness is 0.04 ± 0.13.

With KRRTSFAPQALEILNAHFEKNTHPSGQEMTEIAEKLNYDREVVRVWFCNKRQALK [T7A] as the variant, how does the abundance fitness read?
The abundance fitness was -0.2 ± 0.18.

For KRRTSFNPQALEILNAHFEKNTHPSGQEMTEIAEKLNYDREVVRVWFCNKRQALK [T7N], which abundance fitness is on record?
The abundance fitness was -0.303 ± 0.3.

With KRRVSFTPQALEILNAHFEKNTHPSGQEMTEIAEKLNYDREVVRVWFCNKRQALK [T4V] as the variant, how does the abundance fitness read?
The abundance fitness was -0.106 ± 0.079.

For KRRLSFTPQALEILNAHFEKNTHPSGQEMTEIAEKLNYDREVVRVWFCNKRQALK [T4L], which abundance fitness is on record?
Its abundance fitness is -0.063 ± 0.079.

With KRRISFTPQALEILNAHFEKNTHPSGQEMTEIAEKLNYDREVVRVWFCNKRQALK [T4I] as the variant, how does the abundance fitness read?
The abundance fitness was -0.364 ± 0.22.

For KRRKSFTPQALEILNAHFEKNTHPSGQEMTEIAEKLNYDREVVRVWFCNKRQALK [T4K], which abundance fitness is on record?
Its abundance fitness is -0.123 ± 0.15.

For KRRQSFTPQALEILNAHFEKNTHPSGQEMTEIAEKLNYDREVVRVWFCNKRQALK [T4Q], which abundance fitness is on record?
Its abundance fitness is -0.203 ± 0.13.

With KRRSSFTPQALEILNAHFEKNTHPSGQEMTEIAEKLNYDREVVRVWFCNKRQALK [T4S] as the variant, how does the abundance fitness read?
Its abundance fitness is -0.001 ± 0.093.

Which abundance fitness does the source give for KRRYSFTPQALEILNAHFEKNTHPSGQEMTEIAEKLNYDREVVRVWFCNKRQALK [T4Y] here?
Its abundance fitness is -0.15 ± 0.18.

For KRRMSFTPQALEILNAHFEKNTHPSGQEMTEIAEKLNYDREVVRVWFCNKRQALK [T4M], which abundance fitness is on record?
The abundance fitness was -0.148 ± 0.16.

For KRRRSFTPQALEILNAHFEKNTHPSGQEMTEIAEKLNYDREVVRVWFCNKRQALK [T4R], which abundance fitness is on record?
Its abundance fitness is -0.204 ± 0.071.

Which abundance fitness does the source give for KRRTSITPQALEILNAHFEKNTHPSGQEMTEIAEKLNYDREVVRVWFCNKRQALK [F6I] here?
The abundance fitness was 0.092 ± 0.1.

For KRRTSHTPQALEILNAHFEKNTHPSGQEMTEIAEKLNYDREVVRVWFCNKRQALK [F6H], which abundance fitness is on record?
Its abundance fitness is -0.272 ± 0.15.

With KRRTSDTPQALEILNAHFEKNTHPSGQEMTEIAEKLNYDREVVRVWFCNKRQALK [F6D] as the variant, how does the abundance fitness read?
The abundance fitness was -0.246 ± 0.13.

For KRRTSPTPQALEILNAHFEKNTHPSGQEMTEIAEKLNYDREVVRVWFCNKRQALK [F6P], which abundance fitness is on record?
Its abundance fitness is 0.039 ± 0.17.

With KRRTSMTPQALEILNAHFEKNTHPSGQEMTEIAEKLNYDREVVRVWFCNKRQALK [F6M] as the variant, how does the abundance fitness read?
The abundance fitness was -0.042 ± 0.12.

With KRRTSLTPQALEILNAHFEKNTHPSGQEMTEIAEKLNYDREVVRVWFCNKRQALK [F6L] as the variant, how does the abundance fitness read?
The abundance fitness was 0.135 ± 0.076.

With KRRTSRTPQALEILNAHFEKNTHPSGQEMTEIAEKLNYDREVVRVWFCNKRQALK [F6R] as the variant, how does the abundance fitness read?
The abundance fitness was -0.423 ± 0.076.

Which abundance fitness does the source give for KRRTSWTPQALEILNAHFEKNTHPSGQEMTEIAEKLNYDREVVRVWFCNKRQALK [F6W] here?
Its abundance fitness is -0.025 ± 0.098.

With KRRTSCTPQALEILNAHFEKNTHPSGQEMTEIAEKLNYDREVVRVWFCNKRQALK [F6C] as the variant, how does the abundance fitness read?
The abundance fitness was -0.15 ± 0.09.

For KRRTSTTPQALEILNAHFEKNTHPSGQEMTEIAEKLNYDREVVRVWFCNKRQALK [F6T], which abundance fitness is on record?
The abundance fitness was -0.134 ± 0.11.

Which abundance fitness does the source give for KRRTSETPQALEILNAHFEKNTHPSGQEMTEIAEKLNYDREVVRVWFCNKRQALK [F6E] here?
Its abundance fitness is -0.191 ± 0.11.

For KRRTSATPQALEILNAHFEKNTHPSGQEMTEIAEKLNYDREVVRVWFCNKRQALK [F6A], which abundance fitness is on record?
Its abundance fitness is -0.354 ± 0.092.

Which abundance fitness does the source give for KRRTSSTPQALEILNAHFEKNTHPSGQEMTEIAEKLNYDREVVRVWFCNKRQALK [F6S] here?
The abundance fitness was -0.415 ± 0.086.

With KRRTSGTPQALEILNAHFEKNTHPSGQEMTEIAEKLNYDREVVRVWFCNKRQALK [F6G] as the variant, how does the abundance fitness read?
Its abundance fitness is -0.326 ± 0.067.

Which abundance fitness does the source give for KRRTSNTPQALEILNAHFEKNTHPSGQEMTEIAEKLNYDREVVRVWFCNKRQALK [F6N] here?
The abundance fitness was -0.267 ± 0.19.

For KRRTSQTPQALEILNAHFEKNTHPSGQEMTEIAEKLNYDREVVRVWFCNKRQALK [F6Q], which abundance fitness is on record?
The abundance fitness was -0.28 ± 0.14.

With KRRTSYTPQALEILNAHFEKNTHPSGQEMTEIAEKLNYDREVVRVWFCNKRQALK [F6Y] as the variant, how does the abundance fitness read?
Its abundance fitness is -0.187 ± 0.14.

For KRRTFFTPQALEILNAHFEKNTHPSGQEMTEIAEKLNYDREVVRVWFCNKRQALK [S5F], which abundance fitness is on record?
Its abundance fitness is -0.031 ± 0.13.

For KRRTCFTPQALEILNAHFEKNTHPSGQEMTEIAEKLNYDREVVRVWFCNKRQALK [S5C], which abundance fitness is on record?
The abundance fitness was -0.039 ± 0.084.
